# Source: patent US20180186873A1 (CEPHALON, published 2018)
# Like-named read-outs stand apart in the source and are kept apart here.
# Key:
# recombinant human IL-5 [1] = molecular target: T1, recombinant human IL-5 (human, UniProt P05113 20-134); assay: SPR
# recombinant human IL-5 [2] = molecular target: T1, recombinant human IL-5; assay: SPR; remark: listed apart in the source
# cynomolgus monkey IL-5 = cynomolgus monkey IL-5 (cynomolgus monkey); assay: cell-based or functional assay
# recombinant human IL-5 [3] = molecular target: T1, recombinant human IL-5; assay: cell-based or functional assay
# recombinant human IL-5 [4] = molecular target: T2, recombinant human IL-5 (human, UniProt P05113 20-134)
# recombinant human IL-5 [5] = molecular target: T2, recombinant human IL-5; remark: listed apart in the source
# recombinant human IL-5 [6] = molecular target: T2, recombinant human IL-5; assay: Biacore SPR, purified Ab captured on Protein A, IL-5 injected, run 2.1
# recombinant human IL-5 [7] = molecular target: T2, recombinant human IL-5; remark: listed apart in the source
# recombinant human IL-5 [8] = molecular target: T2, recombinant human IL-5; assay: Biacore SPR, purified Ab captured on Protein A, IL-5 injected, run 1.2
# recombinant human IL-5 [9] = molecular target: T2, recombinant human IL-5; remark: listed apart in the source
# recombinant human IL-5 [10] = molecular target: T2, recombinant human IL-5; remark: listed apart in the source
# recombinant human IL-5 [11] = molecular target: T2, recombinant human IL-5; remark: listed apart in the source
# recombinant human IL-5 [12] = molecular target: T2, recombinant human IL-5; remark: listed apart in the source
# recombinant human IL-5 [13] = molecular target: T2, recombinant human IL-5; remark: listed apart in the source
# recombinant human IL-5 [14] = molecular target: T3, recombinant human IL-5 (human, UniProt P05113 20-134); remark: listed apart in the source
# recombinant human IL-5 [15] = molecular target: T3, recombinant human IL-5; assay: SPR Biacore, purified Ab on Protein A chip, IL-5 analyte, run 3.1
# recombinant human IL-5 [16] = molecular target: T3, recombinant human IL-5; remark: listed apart in the source
# recombinant human IL-5 [17] = molecular target: T3, recombinant human IL-5; assay: SPR Biacore, purified Ab on Protein A chip, IL-5 analyte, run 2.2
# recombinant human IL-5 [18] = molecular target: T3, recombinant human IL-5; remark: listed apart in the source
# recombinant human IL-5 [19] = molecular target: T3, recombinant human IL-5; remark: listed apart in the source
# recombinant human IL-5 [20] = molecular target: T3, recombinant human IL-5; remark: listed apart in the source
# recombinant human IL-5 [21] = molecular target: T3, recombinant human IL-5; remark: listed apart in the source
# recombinant human IL-5 [22] = molecular target: T3, recombinant human IL-5; remark: listed apart in the source
# recombinant human IL-5 [23] = molecular target: T3, recombinant human IL-5; remark: listed apart in the source
# recombinant human IL-5 [24] = molecular target: T3, recombinant human IL-5; remark: listed apart in the source
# recombinant human IL-5 [25] = molecular target: T3, recombinant human IL-5; remark: listed apart in the source
binder,measurement,setting,value
"3A5.046 (antibody, human IgG4 S228P, lambda) heavy: QVQLQESGPGLVKPSQTLSLTCTVSGGSISNGGYYWSWIRQHPGKGLEWIGYIYYSGSTYYNPSLKSRVTISVDTSKNQFSLKLSSVTAADTAVYYCASLGNWFDYWGQGTLVTVSSASTKGPSVFPLAPCSRSTSESTAALGCLVKDYFPEPVTVSWNSGALTSGVHTFPAVLQSSGLYSLSSVVTVPSSSLGTKTYTCNVDHKPSNTKVDKRVESKYGPPCPPCPAPEFLGGPSVFLFPPKPKDTLYITREPEVTCVVVDVSQEDPEVQFNWYVDGVEVHNAKTKPREEQFNSTYRVVSVLTVLHQDWLNGKEYKCKVSNKGLPSSIEKTISKAKGQPREPQVYTLPPSQEEMTKNQVSLTCLVKGFYPSDIAVEWESNGQPENNYKTTPPVLDSDGSFFLYSRLTVDKSRWQEGNVFSCSVMHEALHNHYTQKSLSLSLG light: SYVLTQPPSVSVAPGQTARITCGGNNIGSKNVYWYQQKPGQAPVLVVHDDSDRPSGIPERFSGSNSGNTATLTISRVEVGDEADYSCQVWDSSSDHVVFGGGTKLTVLGQPKAAPSVTLFPPSSEELQANKATLVCLISDFYPGAVTVAWKADSSPVKAGVETTTPSKQSNNKYAASSYLSLTPEQWKSHRSYSCQVTHEGSTVEKTVAPTECS",Kd,recombinant human IL-5 [1],21.7 pM
same,koff,recombinant human IL-5 [1],1.84e-05 s⁻¹
same,kon,recombinant human IL-5 [1],849000 M⁻¹ s⁻¹
same,Kd,recombinant human IL-5 [2],19.4 pM
same,koff,recombinant human IL-5 [2],1.58e-05 s⁻¹
same,kon,recombinant human IL-5 [2],816000 M⁻¹ s⁻¹
same,"IC50, inhibition of IL-5 driven proliferation of TF-1.6G4 cells (Mean, pM)",cynomolgus monkey IL-5,43.8 pM
same,"IC50, inhibition of IL-5 driven proliferation of TF-1.6G4 cells (Mean, pM)",recombinant human IL-5 [3],13.8 pM
"3A5.040 (antibody, human IgG4 S228P, lambda) heavy: not shown light: SYVLTQPPSVSVAPGQTARITCGGNNIGSKNVYWYQQKPGQAPVLVVHDDSDRPSGIPERFSGSNSGNTATLTISRVEVGDEADYSCQVWDSSSDHVVFGGGTKLTVLGQPKAAPSVTLFPPSSEELQANKATLVCLISDFYPGAVTVAWKADSSPVKAGVETTTPSKQSNNKYAASSYLSLTPEQWKSHRSYSCQVTHEGSTVEKTVAPTECS [3A5.040, listing 1 of 2 here]",Kd,recombinant human IL-5 [4],139 pM
same,koff,recombinant human IL-5 [4],0.000101 s⁻¹
same,kon,recombinant human IL-5 [4],728000 M⁻¹ s⁻¹
same,Kd,recombinant human IL-5 [5],150 pM
same,koff,recombinant human IL-5 [5],0.00011 s⁻¹
same,kon,recombinant human IL-5 [5],732000 M⁻¹ s⁻¹
same,Kd,recombinant human IL-5 [6],142 pM
same,koff,recombinant human IL-5 [6],0.000105 s⁻¹
same,kon,recombinant human IL-5 [6],737000 M⁻¹ s⁻¹
same,Kd,recombinant human IL-5 [7],163 pM
same,koff,recombinant human IL-5 [7],0.000116 s⁻¹
same,kon,recombinant human IL-5 [7],713000 M⁻¹ s⁻¹
same,Kd,recombinant human IL-5 [8],151 pM
same,koff,recombinant human IL-5 [8],0.000111 s⁻¹
same,kon,recombinant human IL-5 [8],735000 M⁻¹ s⁻¹
same,Kd,recombinant human IL-5 [9],163 pM
same,koff,recombinant human IL-5 [9],0.000116 s⁻¹
same,kon,recombinant human IL-5 [9],713000 M⁻¹ s⁻¹
same,Kd,recombinant human IL-5 [10],180 pM
same,koff,recombinant human IL-5 [10],0.000133 s⁻¹
same,kon,recombinant human IL-5 [10],740000 M⁻¹ s⁻¹
same,Kd,recombinant human IL-5 [11],115 pM
same,koff,recombinant human IL-5 [11],8.22e-05 s⁻¹
same,kon,recombinant human IL-5 [11],714000 M⁻¹ s⁻¹
same,Kd,recombinant human IL-5 [12],143 pM
same,koff,recombinant human IL-5 [12],0.000104 s⁻¹
same,kon,recombinant human IL-5 [12],728000 M⁻¹ s⁻¹
same,Kd,recombinant human IL-5 [13],129 pM
same,koff,recombinant human IL-5 [13],9.36e-05 s⁻¹
same,kon,recombinant human IL-5 [13],727000 M⁻¹ s⁻¹
"3A5.040 (antibody, human IgG4 S228P, lambda) heavy: not shown light: SYVLTQPPSVSVAPGQTARITCGGNNIGSKNVYWYQQKPGQAPVLVVHDDSDRPSGIPERFSGSNSGNTATLTISRVEVGDEADYSCQVWDSSSDHVVFGGGTKLTVLGQPKAAPSVTLFPPSSEELQANKATLVCLISDFYPGAVTVAWKADSSPVKAGVETTTPSKQSNNKYAASSYLSLTPEQWKSHRSYSCQVTHEGSTVEKTVAPTECS [3A5.040, listing 2 of 2 here]",Kd,recombinant human IL-5 [14],134 pM
same,koff,recombinant human IL-5 [14],0.000103 s⁻¹
same,kon,recombinant human IL-5 [14],773000 M⁻¹ s⁻¹
same,Kd,recombinant human IL-5 [15],174 pM
same,koff,recombinant human IL-5 [15],0.00014 s⁻¹
same,kon,recombinant human IL-5 [15],807000 M⁻¹ s⁻¹
same,Kd,recombinant human IL-5 [16],138 pM
same,koff,recombinant human IL-5 [16],0.000109 s⁻¹
same,kon,recombinant human IL-5 [16],789000 M⁻¹ s⁻¹
same,Kd,recombinant human IL-5 [17],133 pM
same,koff,recombinant human IL-5 [17],0.000106 s⁻¹
same,kon,recombinant human IL-5 [17],793000 M⁻¹ s⁻¹
same,Kd,recombinant human IL-5 [18],153 pM
same,koff,recombinant human IL-5 [18],0.00012 s⁻¹
same,kon,recombinant human IL-5 [18],784000 M⁻¹ s⁻¹
same,Kd,recombinant human IL-5 [19],149 pM
same,koff,recombinant human IL-5 [19],0.000114 s⁻¹
same,kon,recombinant human IL-5 [19],769000 M⁻¹ s⁻¹
same,Kd,recombinant human IL-5 [20],151 pM
same,koff,recombinant human IL-5 [20],0.000117 s⁻¹
same,kon,recombinant human IL-5 [20],775000 M⁻¹ s⁻¹
same,Kd,recombinant human IL-5 [21],135 pM
same,koff,recombinant human IL-5 [21],0.000105 s⁻¹
same,kon,recombinant human IL-5 [21],777000 M⁻¹ s⁻¹
same,Kd,recombinant human IL-5 [22],171 pM
same,koff,recombinant human IL-5 [22],0.000132 s⁻¹
same,kon,recombinant human IL-5 [22],772000 M⁻¹ s⁻¹
same,Kd,recombinant human IL-5 [23],148 pM
same,koff,recombinant human IL-5 [23],0.000115 s⁻¹
same,kon,recombinant human IL-5 [23],776000 M⁻¹ s⁻¹
same,Kd,recombinant human IL-5 [24],150 pM
same,koff,recombinant human IL-5 [24],0.000117 s⁻¹
same,kon,recombinant human IL-5 [24],779000 M⁻¹ s⁻¹
same,Kd,recombinant human IL-5 [25],177 pM
same,koff,recombinant human IL-5 [25],0.000137 s⁻¹
same,kon,recombinant human IL-5 [25],772000 M⁻¹ s⁻¹
